In general, koff refers to a measure of how fast the partners let go of each other. The term Kd denotes the free concentration of one partner at which half of the binding sites on the other are occupied at equilibrium, for simple one-to-one binding. A word on the EC50: it is the concentration at which the effect is half-maximal. High values mean a less potent agent, low ones a more potent agent. The term IC50 denotes the concentration that inhibits the measured activity by half.

Where two headings read alike, the source gives them in different places.

Assay [1] has as its target T1, SARS-CoV-2 receptor-binding domain (RBD), wild type (SARS-CoV-2, UniProt P0DTC2 331-527). Put plainly: BLI. (BLI is a label-free optical method that tracks binding on a fibre tip over time.)
The target in assay [2] is T1, SARS-CoV-2 receptor-binding domain …. Put plainly: BLI. This is another data set of the same source.
The target of a further assay is SARS-CoV S1 subunit (SARS-CoV, UniProt P59594 14-667).
Assay [3] has as its target T1, SARS-CoV-2 receptor-binding domain …. Briefly: BLI. The source holds these as a separate data set.
Assay [4] addresses T2, SARS-CoV-2 spike (recombinant, used in bio-layer interferometry) (SARS-CoV-2, UniProt P0DTC2). Put plainly: BLI.
For assay [5], the target named is T1, SARS-CoV-2 receptor-binding domain …. Put plainly: BLI. This is another data set of the same source.
For assay [6], the target named is T2, SARS-CoV-2 spike (recombinant, used in …). Put plainly: BLI. This is another data set of the same source.

B1: WNb 7 (VHH)
VHH: QVQLQESGGGLVQPGGSLRLSCAAPGFTFSSYAMGWFRQVPGKGLEWVSGIYSDGSTYYADSVKGRFTISRDNAKNTVYLQMNSLKPEDTAVYYCAKDRLEGSSWPERDFGSWGQGTQVTVSS
As to B1, the koff in assay [1] stood at 3.19e-05 s⁻¹. The molecule further registered a Kd in assay [2] of 0.26 nM.

B2: WNbFc 7 (Fc fusion)
chain: QVQLQESGGGLVQPGGSLRLSCAAPGFTFSSYAMGWFRQVPGKGLEWVSGIYSDGSTYYADSVKGRFTISRDNAKNTVYLQMNSLKPEDTAVYYCAKDRLEGSSWPERDFGSWGQGTQVTVSS
Regarding B2, the concentration giving a half-maximal response (EC50) in the assay with SARS-CoV S1 subunit stood at 1.12 nM; in the assay with SARS2 S1 it was 0.46 nM. The Kd in assay [2] was 0.35 nM; in assay [3] it was 0.7 nM; in assay [4] it was < 0.01 nM. In the assay with SARS2 S1, the 50% inhibitory concentration (IC50) was 0.45 nM. The koff in assay [5] is 0.000191 s⁻¹; in assay [6], < 1e-06 s⁻¹.

B3: WNb 10 (VHH)
VHH: QVQLQESGGGLVQPGGSLRLSCAASGFTFRRYLMGWARQVPGKGLEWVSGIYSDGSTYYADSVKGRFTISRDNAKNTVYLQMNSLKPEDTAVYYCAKDRMDGSTWPERDFGSWGQGTQVTVSS
Molecule B3 showed an off-rate constant (koff) in assay [1] of 9.64e-05 s⁻¹. Also, in assay [2], the Kd was determined as 0.68 nM.

B4: WNb 53 (VHH)
VHH: QVQLQESGGGLVQPGGSLRLSCAASGFTFSSYLMGWARQVPGKGLEWVAGIYSDGSTYYADSVKGRFIISRDNAKNTVYLQMNSLKPEDTAVYYCAKDRMEDSTWPERDFGSWGQGTQVTVSS
In turn, B4 gave a dissociation rate constant (koff) in assay [1] of 0.00013 s⁻¹. The molecule also had a Kd in assay [2] of 0.64 nM.

B5: WNb 15 (VHH)
VHH: QVQLQESGGGLVQPGGSLRLSCAASGFTFSSYLMGWFRQVPGKGLEWVSGIYSDGGTYYADSVKGRFTISRDNAKNTVYLQMNSLKPEDTAVYYCATDRMEGSSWPERDFGSWGQGTQVTVSS
Take B5: the koff in assay [1] is 3.05e-05 s⁻¹. This molecule also yielded a dissociation constant Kd in assay [2] of 0.14 nM.

B6: WNbFc 15 (Fc fusion)
chain: QVQLQESGGGLVQPGGSLRLSCAASGFTFSSYLMGWFRQVPGKGLEWVSGIYSDGGTYYADSVKGRFTISRDNAKNTVYLQMNSLKPEDTAVYYCATDRMEGSSWPERDFGSWGQGTQVTVSS
With B6, the concentration giving a half-maximal response (EC50) with SARS-CoV S1 subunit came to 1.69 nM; with SARS2 S1 it was 1.6 nM. Moreover, the Kd in assay [2] was 0.25 nM; in assay [3] it was 0.44 nM; in assay [4], < 0.01 nM. In the assay with SARS2 S1, the 50% inhibitory concentration (IC50) came out at 1.07 nM. The results for the koff in assay [5] and in assay [6] were 0.000128 s⁻¹ and < 1e-06 s⁻¹, respectively.

B7: WNb 50 (VHH)
VHH: QVQLQESGGGLVQPGGSLRLSCAASGFTFSSYAMGWFRQVPGKGLEWVSGIYSDGSTYYADSVKGRFTISRDNAKNTVYLQMNSLKPEDTAVYYCAADRMAGSRWPERDFGSWGQGTQVTVSS
The molecule B7 gave a koff in assay [1] of 0.00013 s⁻¹. The molecule also returned a dissociation constant (Kd) in assay [2] of 0.63 nM.

B8: WNb 19 (VHH)
VHH: QVQLQESGGGLVQPGGSLRLSCAASGSMFSINVMGWYRQASGKQRELVAGITRDGATNYSDSVKGRFTISGDNAKNTVYLQMNSLKPEDTAVYYCNTNVDSVWGSRIDYFGQGTQVTVSS
B8 gave an off-rate constant (koff) in assay [1] of 0.000107 s⁻¹. The Kd in assay [2] was 0.46 nM.

B9: WNb 41 (VHH)
VHH: QVQLQESGGGLVQPGGSLRLSCAVSGFTLDYYAIGWFRQAPGKEREGVSCISSSGGSTNYADSVKGRFTISRDNAKNTVYLQMNGLKPEDTAVYYCAAIAATYYSGSYYYQCPHDGMDYWGKGTQVTVSS
In assay [1], B9 gave a koff of 0.000104 s⁻¹. The molecule further returned a Kd in assay [2] of 0.55 nM.

B10: WNbFc 2 (Fc fusion)
chain: QVQLQESGGGLVQPGGSLRLSCAVSGFTLDYYAIGWFRQAPGKEREGVSCISSSGGNTKYADSVKGRFTASRDNAKNTFYLQMNSLKPEDTAVYYCAAIAATYYSGSYYFQCPHDGMDYWGKGTQVTVSS
On to B10, for which the equilibrium dissociation constant (Kd) in assay [3] is 0.59 nM; in assay [4], < 0.01 nM. In the assay with SARS2 S1, this molecule displayed a half-maximal effective concentration (EC50) of 1.17 nM. The same molecule displayed a concentration for half-maximal inhibition (IC50) with SARS2 S1 of 0.66 nM. For the same molecule, the figures for the off-rate constant (koff) in assay [5] and in assay [6] were 0.000158 s⁻¹ and < 1e-06 s⁻¹, respectively.

B11: WNb 2 (VHH)
VHH: QVQLQESGGGLVQPGGSLRLSCAVSGFTLDYYAIGWFRQAPGKEREGVSCISSSGGNTKYADSVKGRFTASRDNAKNTFYLQMNSLKPEDTAVYYCAAIAATYYSGSYYFQCPHDGMDYWGKGTQVTVSS
As for B11, in assay [1], the off-rate (koff) amounted to 7.34e-05 s⁻¹. In assay [2], the dissociation constant (Kd) stood at 0.36 nM.

B12: WNb 67 (VHH)
VHH: QVQLQESGGGLVQPGGSLRLSCAVSGFTLDYYAIGWFRQAPGKEREGVSCISSSGGSTNYADSVKGRFTISRDNATNTVYLQMNSLKPEDTAVYYCAAIAATYYGGSYYYQCPHYGMDYWGKGTQVTVSS
In assay [1], B12 yielded an off-rate constant (koff) of 0.000212 s⁻¹. For the same molecule, binding in assay [2] was put at a Kd of 0.61 nM.

B13: WNb 23 (VHH)
VHH: QVQLQESGGGLVQPGGSLRLSCAASGFTFKDYAMAWARQVPGKGLEWVSGIYSDGNTYYADSVKGRFTISRDNAKNTVYLRMNSLKPEDTAVYYCATERHPQGAADFGSWGQGTQVTVSS
In assay [1], B13 gave an off-rate (koff) of 0.00245 s⁻¹. Moreover, the dissociation constant Kd in assay [2] was determined as 9.03 nM.

B14: WNb 36 (VHH)
VHH: QVQLQESGGGLVQPGGSLRLSCAVSGFTLDYYAIGWFRQAPGKEREGVSCISNSGGNTKYADSVKGRFTTSVDNAQNTVYLLMNSLEPEDTAVYYCAAIAATYYSGTYYYQCPHYGMDYWGKGTQVTVSS
B14 displayed a dissociation rate constant (koff) in assay [1] of 0.000127 s⁻¹. The molecule further had a dissociation constant (Kd) in assay [2] of 0.43 nM.

B15: WNbFc 36 (Fc fusion)
chain: QVQLQESGGGLVQPGGSLRLSCAVSGFTLDYYAIGWFRQAPGKEREGVSCISNSGGNTKYADSVKGRFTTSVDNAQNTVYLLMNSLEPEDTAVYYCAAIAATYYSGTYYYQCPHYGMDYWGKGTQVTVSS
Take B15: the Kd in assay [2] was 0.36 nM; in assay [3], 0.61 nM; in assay [4], < 0.01 nM. In the assay with SARS2 S1, this molecule returned an EC50 of 0.63 nM. In addition, in the assay with SARS2 S1, half-maximal inhibition (IC50) was put at 0.32 nM. Moreover, the values for the off-rate (koff) in assay [5] and in assay [6] were 0.000202 s⁻¹ and < 1e-06 s⁻¹, respectively.
